Experiment [1] deals with T1, REGN2431 (hmm.hTfRC): monomeric human Tfrc ectodomain (C89-F760) with N-terminal hexahistidine-myc-myc tag (human, UniProt P02786 89-760).
T1 construct: also called hmm.hTfR(C89-F763); hTFR-mmh
The experiment can be described thus: SPR Biacore, IgG captured by anti-hFc, 25 C. The protocol:
(§1) Biacore binding kinetics assays were conducted for the interaction of 32 anti-human TfR IgG1 monoclonal antibodies from CHO supernatants with TfR reagents at 25° C.
(§2) Equilibrium dissociation constants (KD) for the interaction of anti-TfR monoclonal antibodies with human and fascicularis monkey TfR ecto domain recombinant proteins were determined using a real-time surface plasmon resonance (SPR) based Biacore S200 biosensor. All binding studies were performed in 10 mM HEPES, 150 mM NaCl, 3 mM EDTA, and 0.05% v/v surfactant Tween-20, pH 7.4 (HBS-EP) running buffer at […]. The Biacore CM5 sensor surface was first derivatized by amine coupling with a monoclonal mouse anti-human Fc antibody (REGN2567) followed by a step to capture anti-TfR monoclonal antibodies in CHO conditioned media. […] The dissociation of TfR bound to anti-TfR monoclonal antibodies was monitored for 3 minutes in HBS-EP running buffer. At the end of each cycle, the anti-TfR monoclonal antibodies capture surface was regenerated using a 12-see injection of 20 mM H₃PO₄. The association rate (ka) and dissociation rate (kd) were determined by fitting the real-time binding sensorgrams to a 1:1 binding model with mass transport limitation using Scrubber 2.0c software. The dissociation equilibrium constant (KD) and dissociative half-life (t %) were calculated from the kinetic rate constants as: […]
(In general: SPR reads the build-up and loss of mass on a sensor chip optically.)

The target of experiment [2] is T2, REGN2054 (mf TFRC ecto-mmh): monomeric monkey (cyno) Tfrc ectodomain (C89-F760) with C-terminal … (monkey (cyno, Macaca fascicularis), UniProt H9EXL1 89-760).
T2 construct: range 89-760; also called mfTFR-mmh; mfTfR-mmh
Nature of the experiment: SPR Biacore, IgG captured by anti-hFc, 25 C. The protocol: as §1, §2

T2 sequence (chain, as listed by the source): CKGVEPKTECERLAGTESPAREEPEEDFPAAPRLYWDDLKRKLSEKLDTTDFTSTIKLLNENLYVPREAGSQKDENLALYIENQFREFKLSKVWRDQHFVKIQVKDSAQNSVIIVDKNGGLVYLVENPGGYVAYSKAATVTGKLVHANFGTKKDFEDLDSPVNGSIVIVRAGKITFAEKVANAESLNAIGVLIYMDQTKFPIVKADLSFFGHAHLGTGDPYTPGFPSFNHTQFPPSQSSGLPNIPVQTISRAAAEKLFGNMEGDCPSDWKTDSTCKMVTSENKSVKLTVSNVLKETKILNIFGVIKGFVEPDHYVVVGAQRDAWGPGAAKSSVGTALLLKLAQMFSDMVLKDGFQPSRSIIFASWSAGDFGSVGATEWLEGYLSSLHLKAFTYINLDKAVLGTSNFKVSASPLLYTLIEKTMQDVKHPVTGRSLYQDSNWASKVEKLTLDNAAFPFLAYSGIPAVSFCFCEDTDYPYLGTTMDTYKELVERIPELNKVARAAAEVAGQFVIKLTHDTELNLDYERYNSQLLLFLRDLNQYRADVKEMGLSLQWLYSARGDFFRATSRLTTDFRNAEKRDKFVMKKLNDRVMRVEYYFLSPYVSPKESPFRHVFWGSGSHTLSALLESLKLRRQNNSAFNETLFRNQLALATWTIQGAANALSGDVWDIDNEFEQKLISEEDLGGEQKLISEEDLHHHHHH
T1 sequence (P02786 other isoform, or with tags, fused parts or gaps): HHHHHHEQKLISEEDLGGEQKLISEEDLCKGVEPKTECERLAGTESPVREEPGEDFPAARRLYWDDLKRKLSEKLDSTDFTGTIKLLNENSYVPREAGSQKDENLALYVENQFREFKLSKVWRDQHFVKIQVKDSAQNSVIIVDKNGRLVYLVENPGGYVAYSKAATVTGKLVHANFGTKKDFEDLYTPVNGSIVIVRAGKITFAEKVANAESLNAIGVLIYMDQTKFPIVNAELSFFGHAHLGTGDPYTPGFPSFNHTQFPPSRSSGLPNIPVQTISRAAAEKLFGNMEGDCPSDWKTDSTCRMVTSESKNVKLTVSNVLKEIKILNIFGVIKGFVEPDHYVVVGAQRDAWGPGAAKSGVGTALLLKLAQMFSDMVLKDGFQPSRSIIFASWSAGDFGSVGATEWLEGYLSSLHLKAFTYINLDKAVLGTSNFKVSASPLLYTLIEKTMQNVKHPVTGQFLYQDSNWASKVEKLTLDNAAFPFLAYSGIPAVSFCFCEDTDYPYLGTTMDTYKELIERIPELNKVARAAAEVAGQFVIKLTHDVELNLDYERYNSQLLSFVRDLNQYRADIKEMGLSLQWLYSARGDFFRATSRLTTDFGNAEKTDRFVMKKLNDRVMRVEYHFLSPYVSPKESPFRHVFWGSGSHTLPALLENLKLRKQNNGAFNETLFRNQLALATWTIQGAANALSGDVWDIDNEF

B1: 69323 anti-hTfR monoclonal antibody (bivalent IgG1) (antibody, V domains shown)
VH: EVQLVESGGGLVQPGRSLRLSCAASGFTFDDYAMHWVRQAPGKGLEWVSGISWNSGYIGYADSVKGRFTISRDNAENSLHLQMNSLRAEDTALYYCARGGSTLVRGVKGGYYGMDVWGQGTTVTVSS
VL: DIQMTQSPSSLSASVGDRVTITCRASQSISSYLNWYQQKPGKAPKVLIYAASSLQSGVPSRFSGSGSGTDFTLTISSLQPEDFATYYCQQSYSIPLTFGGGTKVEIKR
notes: hIgG1/kappa
Turning to B1, the results for the t1/2 in experiment [1] and in experiment [2] were 64.1 min and 1.1 min, respectively.

B2: 12845B anti-hTfR monoclonal antibody (bivalent IgG1) (antibody, V domains shown)
VH: EVQLVESGGGLVQPGGSLRLSCAASGFTVSNYEMNWVRQAPGKGLEWVSYISSSTSNIYYADSVKGRFTISRDNAENSLYLQMNSLRVEDTAVYYCVRDGIVVVPVGRGYYYYGLDVWGQGTTVTVSS
VL: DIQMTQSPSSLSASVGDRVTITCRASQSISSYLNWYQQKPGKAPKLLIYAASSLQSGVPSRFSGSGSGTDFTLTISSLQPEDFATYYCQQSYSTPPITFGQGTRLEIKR
notes: hIgG1/kappa; also called H1H12845B; REGN17513
B2 yielded a t1/2 in experiment [1] of 57.9 min.

B3: 12850B anti-hTfR monoclonal antibody (bivalent IgG1) (antibody, V domains shown)
VH: QVQLVQSGAEVKKPGSSVKVSCKASGGTFNTYAITWVRQAPGQGLEWMGGIIPISGIAEYAQKFQGRVTITTDDSSTTAYMELNSLRSEDTAVYYCASWNYALYYFYGMDVWGRGTTVTVSS
VL: not shown
notes: hIgG1/kappa; also called H1H12850B; REGN17516
Turning to B3, the t1/2 in experiment [1] was determined as 657 min; in experiment [2] it was 7.3 min.

B4: 12816B anti-hTfR monoclonal antibody (bivalent IgG1) (antibody, V domains shown)
VH: QVQLVESGGGLVKPGGSLRLSCAASGFTFSDYYMNWIRQAPGKGLEWVSYISSSGTTIYYADSVKGRFTISRDNAKKSLYLEMNSLRAEDTAVYYCAREGYGNDYYYYGIDVWGQGTTVTVSS
VL: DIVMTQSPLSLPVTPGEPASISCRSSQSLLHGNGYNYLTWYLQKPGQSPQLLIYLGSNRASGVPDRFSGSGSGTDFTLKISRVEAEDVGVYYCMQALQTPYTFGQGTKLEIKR
notes: hIgG1/kappa
In the case of B4, the t1/2 in experiment [1] worked out at 34.3 min; in experiment [2], 23.8 min.

B5: 69261 anti-hTfR monoclonal antibody (bivalent IgG1) (antibody, V domains shown)
VH: QVQLVESGGGLVKPGGSLRLSCAASGFTFSVYYMNWIRQAPGKGLEWVSYISSSGSTIYYADSVKGRFTISRDNAKNSLYLQMNSLRAEDTAVYYCGREGYSGTYSYYGMDVWGQGTTVTVSS
VL: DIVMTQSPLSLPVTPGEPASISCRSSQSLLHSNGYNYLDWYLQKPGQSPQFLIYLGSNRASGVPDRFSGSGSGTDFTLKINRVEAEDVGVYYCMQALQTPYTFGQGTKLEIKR
notes: hIgG1/kappa
In the case of B5, the t1/2 in experiment [1] is 143 min; in experiment [2], 28.7 min.

B6: 12839B anti-hTfR monoclonal antibody (bivalent IgG1) (antibody, V domains shown)
VH: QVQLVESGGGVVQPGRSLRLSCAASGFPFSNYVMYWVRQAPGKGLEWVALIFFDGKKNYHADSVKGRFTITRDNSKNMLYLQMNSLRPEDAAVYYCAKIHCPNGVCYKGYYGMDVWGQGTTVTVSS
VL: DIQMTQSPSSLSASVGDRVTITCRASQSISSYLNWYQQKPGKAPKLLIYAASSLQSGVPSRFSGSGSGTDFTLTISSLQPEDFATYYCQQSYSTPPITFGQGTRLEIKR
notes: hIgG1/kappa; also called H1H12839B; REGN17510
Consider B6, for which the t1/2 in experiment [1] stood at 217 min.

B7: 69326 anti-hTfR monoclonal antibody (bivalent IgG1) (antibody, V domains shown)
VH: EVQLVESGGGLVQPGGSLRLSCAVSGFIFSSYEMNWVRQAPGKGLEWVSYISSSGSTIFYADSVKGRFTISRDNAKNSLYLQMNSLRAEDTAVYYCVSGVVLFDVWGQGTMVTVSS
VL: EIVMTQSPATLSVSPGERATLSCRASQSVSSNFAWYQQKPGQAPRLLIYSASSRATGIPVRFSGSGSGTEFTLTISSLQSEDFAVYYCQQYNIWPRTFGQGTKVEIKR
notes: hIgG1/kappa
For the molecule B7, the t1/2 in experiment [1] worked out at 45.1 min.

B8: 12834B anti-hTfR monoclonal antibody (bivalent IgG1) (antibody, V domains shown)
VH: QVQLVQSGAEVKKPGASVKVSCKASGYTFTSYGISWVRQAPGQGLEWMGWISVYHGNTNYAQKFQGRVTMTTDTSTSTAYMELRSLRSDDTAVYYCAREGYYDFWSGYYPFDYWGQGTLVTVSS
VL: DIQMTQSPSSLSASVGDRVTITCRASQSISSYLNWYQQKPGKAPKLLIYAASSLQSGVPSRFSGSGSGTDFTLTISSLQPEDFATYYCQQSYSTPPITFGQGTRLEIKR
notes: hIgG1/kappa
With B8, the t1/2 in experiment [1] amounted to 2.6 min.

B9: 69348 anti-hTfR monoclonal antibody (bivalent IgG1) (antibody, V domains shown)
VH: QVQLVESGGGVVQPGRSLRLSCAASGFTFTTYGMHWVRQAPGKGLEWVAVIWYDGSNKYYGDSVKGRFTISRDNSKNTLYLQMNSLRVDDTAVYYCTRTHGYTRSSDGFDYWGQGTLVTVSS
VL: DIQMTQSPSSLSASVGDRVTITCRASQSIRNVLGWFQQKPGKAPQRLIYAASSLQSGVPSRFSGSGSGTEFTLTISSLQPEDFATYYCLQHNFYPLTFGGGTKVEIKR
notes: hIgG1/kappa
Take B9: the t1/2 in experiment [1] was found to be 67.2 min; in experiment [2], 25.1 min.

B10: 12795B anti-hTfR monoclonal antibody (bivalent IgG1) (antibody, V domains shown)
VH: EVQLVESGGGLVQPGGSLRLSCATSGFTFTSYDMKWVRQAPGLGLEWVSAISGSGGNTYYADSVKGRFTISRDNSRNTLYLQMNSLRAEDTAVYYCTRSHDFGAFDYFDYWGQGTLVTVSS
VL: DIQMTQSPSSLSASVGDRVTITCRASQGIRDHFGWYQQKPGKAPKRLIYAASSLHSGVPSRFSGSGSGTEFTLTISSLQPEDFATYYCLQYDTYPLTFGGGTKVEIKR
notes: hIgG1/kappa
As to B10, the t1/2 in experiment [1] was > 1160 min; in experiment [2] it was 162 min.

B11: 12833B anti-hTfR monoclonal antibody (bivalent IgG1) (antibody, V domains shown)
VH: QVQLVESGGGVVQPGRSLRLSCAASGFTFSSFGMHWVRQAPGKGLEWVIFISYDGSDKYYADSVKGRFAISRDSSKNTLYLQMNSLRAEDTAVYYCAKENGILTDSYGMDVWGQGTTVTVSS
VL: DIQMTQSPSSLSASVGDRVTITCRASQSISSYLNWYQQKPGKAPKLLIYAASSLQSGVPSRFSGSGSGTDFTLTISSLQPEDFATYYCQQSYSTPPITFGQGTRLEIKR
notes: hIgG1/kappa
For B11, the t1/2 in experiment [1] was determined as 45.9 min; in experiment [2] it was 23.8 min.

B12: 69307 anti-hTfR monoclonal antibody (bivalent IgG1) (antibody, V domains shown)
VH: EVQLVESGGGLVQPGGSLRLSCTASGFTFSNYWMTWVRQAPGKGLEWVANIKEDGSEKEYVDSVKGRFTISRDNAKNSLYLQMNSLRGEDTAVYYCARDGEQLVDYYYYYVMDVWGQGTTVTVSS
VL: DIQMTQSPSSVSASVGDRVTITCRASQGISSWLAWYQQKPGKAPKLLIYAASSLQSGVPSRFSGSGSGTDFTLTISSLQPEDFATYYCQKADSLPYAFGQGTKLEIKR
notes: hIgG1/kappa
Molecule B12 returned a t1/2 in experiment [1] of 271 min.

B13: 12812B anti-hTfR monoclonal antibody (bivalent IgG1) (antibody, V domains shown)
VH: QVQLVQSGAEVKKPGSSVRVSCKASRGTFSSYAISWVRQAPGQGLEWMGGIIPIFGTANYAQKFLARVTITADESTSTAYMELSSLRSEDTAVYYCAREKGWNYFDYWGQGTLVTVSS
VL: DIQMTQSPPSVSASVGDRVTITCRASQGISSWLAWYQQKPGKAPKLLIYAASSLQSGVPSRFSGSGSGTDFTLTISSLQPEDFATYYCQQANSFPRTFGQGTKVEIKR
notes: hIgG1/kappa; also called H1H12812B; REGN17708
Turning to B13, the t1/2 in experiment [1] was 8.8 min.

B14: 69329 anti-hTfR monoclonal antibody (bivalent IgG1) (antibody, V domains shown)
VH: EVQLVESGGGLVQPGGSLRLSCAASGFTFSNYWMTWVRQAPGKGLEWVANIKEDGSEKDYVDSVKGRFTISRDNAKNSLYLQMNSLRGEDTAVYYCARDGEQLVDYYYYYVMDVWGQGTTVTVSS
VL: DIQMTQSPSSVSASVGDRVTITCRASQGISSWLAWYQQKPGKAPKLLIYAASSLQSGVPSRFSGSGSGTDFTLTISSLQPEDFATYYCQKANSFPYTFGQGTKLEIKR
notes: hIgG1/kappa
In turn, B14 returned a t1/2 in experiment [1] of 62.2 min.

B15: 31863B anti-hTfR monoclonal antibody (bivalent IgG1) (antibody, V domains shown)
VH: EVQLVESGGGLVQPGGSLRLSCAASGFTFNSYAMTWVRQAPGKGLEWVSFIGGSTGNTYYAGSVKGRFTISSDNSKKTLYLQMNSLRAEDTAVYYCAKGGAARRMEYFQHWGQGTLVTVSS
VL: DIQMTQSPSSLSASIGDRVTITCRASQGISNYLAWYQQKPGKVPKLLIYAASTLQSGVPSRFSGSGSGTDFTLTISSLQPEDVATYYCQNHNSVPLTFGGGTKVEIKR
notes: hIgG1/kappa
Take B15: the t1/2 in experiment [1] was > 1160 min; in experiment [2], 3.9 min.

B16: 31874B anti-hTfR monoclonal antibody (bivalent IgG1) (antibody, V domains shown)
VH: EVQLVESGGGLVQPGGSLRLSCAASGFAFSSYAMTWVRQAPGKGLEWVSVISGTGGSTYYADSVKGRFTISRDNSKNTLYLQMNSLRAEDTAVYYCAKGGAARRMEYFQYWGQGTLVTVSS
VL: DIQMTQSPSSLSASVGDRVTITCRASQGISNYLAWYQQKPGKVPNLLIYAASTLQSGVPSRFSGSGSGTDFTLTISSLQPEDVATYYCQKYNSAPLTFGGGTKVEIKR
notes: hIgG1/kappa; also called H1H31874B; REGN17517
On to B16, for which the t1/2 in experiment [1] amounted to 100 min; in experiment [2] it was 1.2 min.

B17: 69331 anti-hTfR monoclonal antibody (bivalent IgG1) (antibody, V domains shown)
VH: QVQLVESGGGVVQPGRSLRLSCIASGFTFSVYGIHWVRQAPGKGLEWMAVISHDGNIKHYADSVKGRFTISRDNSKNTLYLQINSLRTEDTAVYYCAKDTWNSLDTFDIWGQGTMVTVSS
VL: DIQLTQSPSSLSASVGDRVTITCWASQGISSYLAWYQQKPGKAPKLLIYAASTLQSGVPSRFSGSGSGTEFTLTISSLQPEDFATYYCQQLNSYPLTFGGGTKVEIKR
notes: hIgG1/kappa
In the case of B17, the t1/2 in experiment [1] was found to be 2.5 min; in experiment [2] it was 1.2 min.

B18: 69263 anti-hTfR monoclonal antibody (bivalent IgG1) (antibody, V domains shown)
VH: EVQLVESGGGLVQPGRSLRLSCAVSGFTFDDYAMHWVRQAPGKGLEWVSGISWNSGTRGYADSVKGRFTISRDNAKNSLYLQMNSLRGEDTALYYCVKDITISPNYYGMDVWGQGTTVTVSS
VL: DIQMTQSPSSLSASVGDRVTITCRASQDISHYSAWYQQKPGKLPNLLIYAASTLQSGVPSRFSGSGSGTDFSLTTSSLQPEDVATYYCQKYNSVPLTFGGGTKVEIKR
notes: hIgG1/kappa
Take B18: the t1/2 in experiment [1] came to 10 min; in experiment [2] it was 3.1 min.

B19: 69340 anti-hTfR monoclonal antibody (bivalent IgG1) (antibody, V domains shown)
VH: EVQLVESGGGLVQPGRSLRLSCAASGFTFDDKAMHWVRQVPGKGLEWISGISWNSGTIGYADSVKGRFIISRDNAKNSLYLQMNSLRAEDTALYYCAKDGDTSGWYWYGLDVWGQGTTVTVSS
VL: EIVLTQSPATLSLSPGERATLSCRASQSVSSYLAWYQQKPGQAPRLLIHDVSNRATGIPARFSGSGSGTDFTLTISSLEPEDFVVYYCQQRSDWPITFGQGTRLEIKR
notes: hIgG1/kappa
Turning to B19, the t1/2 in experiment [1] stood at 185 min; in experiment [2] it was 16 min.

B20: 12798B anti-hTfR monoclonal antibody (bivalent IgG1) (antibody, V domains shown)
VH: EVQLVESGGDLVQPGRSLRLSCAASGFTFDDYAMHWVRQAPGKGLEWVSGISWNSATRVYADSVKGRFTISRDNAKNFLYLQMNSLRSEDTALYHCAKDMDISLGYYGLDVWGQGTTVTVSS
VL: not shown
notes: hIgG1/kappa; also called H1H12798B; REGN17507
With B20, the values for the t1/2 in experiment [1] and in experiment [2] were 183 min and 9 min, respectively.

B21: 12841B anti-hTfR monoclonal antibody (bivalent IgG1) (antibody, V domains shown)
VH: EVQLVESGGGLVQPGGSLRLSCAASGFTFSNYWMNWVRQAPGKGLEWVANIKEDGGKKLYVDSVKGRFTISRDNAKNSLFLQMNSLRAEDTAVYYCAREDTTLVVDYYYYGMDVWGQGTTVTVSS
VL: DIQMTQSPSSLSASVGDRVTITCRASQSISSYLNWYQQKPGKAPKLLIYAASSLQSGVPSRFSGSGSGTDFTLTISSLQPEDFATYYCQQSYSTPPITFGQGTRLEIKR
notes: hIgG1/kappa; also called H1H12841B; REGN17511
In the case of B21, the t1/2 in experiment [1] came out at 99.8 min.

For the origin of these results see US20260034230A1 (Regeneron, published 2026).
